The results in this text go back to patent US20170267762A1 (APOLLOMICS, published 2017).

Substitutions are numbered along the chain they refer to. Names may count otherwise.

For assay [1], the target named is T1, human PD-1 on cells (293T cells transfected with human PD-1) (human, UniProt Q15116 25-288).
T1 construct: whole, on cells; Also used as the target for the functional rows, where PD-1 stands on human T cells
The assay can be described thus: FACS binding to 293T cells expressing human PD-1, MFI. As for the experimental part:
(§1) The cells were incubated with the indicated antibody (20 ug/ml with the dilution of ⅕) at 4° C. for 1 h. Cells were washed three times with FACS buffer. A secondary antibody (PE Goat anti-mouse: 1:200; PE mouse anti-human: 1:10) was added to the cells at 100 ul/well, and incubated at 4° C. for 40min. Cells were washed three times with FACS buffer and analyzed by FACS Array.
(A flow cytometer gives signals particle by particle.)

In assay [2] the target is T2, human PD-1 extracellular domain fused with mouse Fc (PD-1-mFc) (human, UniProt Q15116 25-170).
T2 construct: extracellular domain; not used because of the label; also called hPD-1-mFc; human PD-1-mouse Fc fusion protein
T2 sequence (Q15116 25-170): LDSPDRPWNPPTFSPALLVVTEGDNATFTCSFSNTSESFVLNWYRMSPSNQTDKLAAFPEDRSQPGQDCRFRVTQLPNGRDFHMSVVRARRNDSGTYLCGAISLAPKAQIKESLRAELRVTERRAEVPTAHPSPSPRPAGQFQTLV
The assay can be described thus: ELISA ligand blockage: biotinylated PD-L1-mFc binding to plate-bound PD-1, OD450 (methods similar to Example 2: PD-1-mFc coated). As for the experimental part: (§2) PD-1-mFc antigen (CrownBio) was suspended in PBS (Hyclone,Cat No:SH30256.01B) buffer (2 ug/ml, 100 ul/ well) and coated on the 96 well plate (costar, Cat No.:9018) 4° C. overnight. Plates were washed 3 times using washing buffer: PBS+0.05% Tween 20(Sigma, Cat No.:P1379). 200 ul of blocking buffer (PBS+1%BSA(Roche, Cat No.:738328)), was added to each well, incubated at 37° C. for 1 hour, and washed 3 times. Various concentrations (suitable dilutions of hybridoma supernatant in PBS) of the anti-PD-1 Abs were added to the wells (100 μl/well) and incubated at 37° C. for 1 hour. […] Secondary antibody (Avidin HRP eBioscience cat No.:E07418-1632, 1:500, 100 ul/well) was added, incubated at 37 ° C. for 0.5 hour, and washed 3 times. TMB (Sigma, Cat No.: T0440, 100 ul/well) was added, and incubated for 3 min at RT. To stop the reaction, 2N H2SO4 (100 ul/well), was added. The colorimetric signals were developed and read at 450 nm using a Auto Plate SpectraMax Plus (Supplier: Molecular Devices; Model: MNR0643; Software: SoftMax Pro v5.4).
Background: ELISA stands for enzyme-linked immunosorbent assay.

Assay [3] has as its target T1, human PD-1 on cells (293T cells …). Kind of assay: FACS ligand blockage: biotin-labeled PD-L1 binding to 293T cells expressing human PD-1, MFI. As for the experimental part:
(§3) Various concentrations of the testing hybridoma antibodies were added to the cell suspension and incubated at 4° C. for 60 minutes in 96 well plates. […] Plates were washed 3 times, and mouse anti-biotin PE antibody (Biolgend, cat# 409004) was added. Flow cytometric analyses were performed using a FACS Array.

For assay [4], the target named is T3, human PD-1 extracellular domain fused with human Fc tag (hPD-1-hFc) (human).
T3 construct: also called human PD-1-hFc
T3 sequence (chain, as listed by the source limits assumed): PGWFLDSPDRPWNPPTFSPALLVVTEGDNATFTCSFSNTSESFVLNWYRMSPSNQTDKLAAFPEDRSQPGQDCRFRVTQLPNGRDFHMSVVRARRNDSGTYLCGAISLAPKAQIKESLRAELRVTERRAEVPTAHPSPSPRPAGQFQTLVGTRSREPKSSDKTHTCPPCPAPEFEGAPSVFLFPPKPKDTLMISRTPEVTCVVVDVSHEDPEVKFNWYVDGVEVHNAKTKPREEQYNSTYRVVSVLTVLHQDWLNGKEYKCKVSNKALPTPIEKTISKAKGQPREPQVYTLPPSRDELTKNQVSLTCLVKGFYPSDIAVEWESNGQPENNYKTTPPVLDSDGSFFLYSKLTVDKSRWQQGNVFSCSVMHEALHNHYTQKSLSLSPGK
Kind of assay: ELISA binding to plate-bound PD-1, OD450 (methods similar to Example 2: plate coated with PD1-hFc). The method, then: (§4) ELISA binding analysis was conducted based on human PD-1-hFc Protein. 96-well plates (Costar, Cat No:9018) were coated with 100 μL of 2 μg/ml PD1-hFc (CrownBio) in coating buffer (PBS, Hyclone, Cat No:SH30256.01B) overnight at 4° C. The wells were aspirated and non-specific binding sites were blocked by adding 200 μL of blocking buffer with 1% (w/v) of bovine serum albumin (BSA, Roche, Cat No: 738328) and incubating for 1 hour at 37° C. After the plates are washed three times with wash buffer (PBS with 0.05%(v/v) Tween20 (Sigma, Cat No:P1379), 100 μL/well of a suitable dilutions of hybridoma supernatant in blocking buffer were added and incubated at room temperature for 1 hour. The plates were washed and incubated with 100 μL/well of Goat anti-Mouse IgG (H+L) (Thermo, Cat No: 31432) in blocking buffer for 60 min. After the plates were washed, 100 μL/well of substrate solution (TMB(eBioscience, Cat No:00-4201-56) was added and the plates were incubated for 2min at room temperature. 100 μL/well of stop solution (2N H2SO4) was added to stop the reaction. The colorimetric signals were developed and read at 450 nm using a Auto Plate SpectraMax Plus (Supplier: Molecular Devices; Model: MNR0643; Software: SoftMax Pro v5.4).

The target of a further assay is T4, mouse PD-1 (mouse, UniProt Q02242 25-169, limits assumed).
T4 sequence (looked up): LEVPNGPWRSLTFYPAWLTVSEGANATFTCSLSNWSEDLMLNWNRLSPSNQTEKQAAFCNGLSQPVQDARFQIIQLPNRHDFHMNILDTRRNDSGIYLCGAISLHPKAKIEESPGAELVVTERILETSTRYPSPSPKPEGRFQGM
The assay can be described thus: assays not detailed.

The target in assay [5] is T2, human PD-1 extracellular domain fused …. The assay can be described thus: blockage ELISA, coated PD-1-mFc, competitor PDL-1-mFc-biotin. As for the experimental part:
as §2
(§5) The purified hybridoma antibodies were characterized further based on ELISA and FACS analyses.

Assay [6] addresses T1, human PD-1 on cells (293T cells …). The assay can be described thus: FACS on hPD-1-293T cells. The method, then:
as §1, §5

Assay [7] addresses T2, human PD-1 extracellular domain fused …. The assay can be described thus: blockage ELISA, competitor PDL-1-mFc-biotin (summary table; IC50 in ng/ml in Table 2). As for the experimental part:
as §2

Assay [8] addresses T5, human PD-1 (construct not stated) (human, UniProt Q15116 25-167, limits assumed).
T5 construct: also called PD-1 analyte
The assay can be described thus: Biacore (summary table; unit from Table 7). As for the experimental part: (§6) To further characterize the binding characteristics of the antibodies, 10 hybridoma antibodies were profiled using Biacore (Biacore 3000, GE) to elucidate binding kinetics and calculate equilibrium binding constants. This assay was performed by capture method, using the mouse antibody capture kit (BR-1008-38, GE). After diluting anti-mouse Fc mab to 25 μg/ml in pH 5.0 immobilization buffer, immobilization was conducted with the parameters shown in Table 6 at a flow rate of 5 μl/min. The kinetic runs were done by 1) injecting ligand for typical 0.5-1 min at flow rate of 10 μl/min.; 2) injecting analytes of choice for typical 3 min followed by dissociation in running buffer (1× PBS-P20) for typical 5-10 min at flow rate of 30 μl/min.; and 3) injecting regeneration solution 10 mM Glycine pH1.7 for typical 1-2 min at flow rate of 10 μl/min.

The target in assay [9] is T3, human PD-1 extracellular domain fused …. Kind of assay: ELISA on coated PD1-hFc. The method, then:
as §4, §5

For assay [10], the target named is T1, human PD-1 on cells (293T cells …). Kind of assay: FACS blockage on hPD-1-293T cells, competitor biotin PD-L2. As for the experimental part:
as §3, §5

The target is the same in assay [11]. Kind of assay: FACS blockage on hPD-1-293T cells, competitor biotin PD-L1. As for the experimental part: as §3, §5
Another assay has as its target T6, human ICOS (human, UniProt Q9Y6W8 21-140, limits assumed).
T6 sequence (looked up): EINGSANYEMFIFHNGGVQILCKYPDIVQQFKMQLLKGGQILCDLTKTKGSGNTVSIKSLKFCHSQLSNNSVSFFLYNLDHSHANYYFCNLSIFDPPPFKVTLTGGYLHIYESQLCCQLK
The assay can be described thus: Interaction with CTLA4, ICOS CD28; assay not detailed.

In the next assay the target is human CD28 (human, UniProt P10747 19-152, limits assumed). The description is as above.
human CD28, sequence (P10747 19-152 limits assumed): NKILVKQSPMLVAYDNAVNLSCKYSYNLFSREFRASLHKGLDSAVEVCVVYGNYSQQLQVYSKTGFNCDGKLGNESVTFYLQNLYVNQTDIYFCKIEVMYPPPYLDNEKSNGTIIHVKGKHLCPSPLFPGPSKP
Another assay addresses T7, human CTLA4 (human, UniProt P16410 36-161, limits assumed).
T7 sequence (looked up): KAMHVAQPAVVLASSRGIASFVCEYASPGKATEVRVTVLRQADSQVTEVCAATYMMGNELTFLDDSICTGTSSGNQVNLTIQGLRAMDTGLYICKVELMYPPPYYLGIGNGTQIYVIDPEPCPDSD
The assay is described as above.

The target of assay [12] is T3, human PD-1 extracellular domain fused …. Kind of assay: ELISA binding (summary table). As for the experimental part:
as §4, §5

In assay [13] the target is T5, human PD-1 (construct not stated). The assay can be described thus: Biacore, antibody captured, PD-1 analyte. As for the experimental part: as §6
On the technique in general: SPR reads the build-up and loss of mass on a sensor chip optically.

As usually defined, the EC50 is the concentration needed to bring the measured effect to its halfway point. For orientation: IC50 means the concentration needed to halve the response being measured. For orientation: Kd means a measure of binding affinity in units of concentration. Read a low Kd as a tighter complex. One may read the koff as the first-order rate constant of dissociation. Higher therefore signals a short-lived complex. The kon is the rate constant with which the complex forms.

T5 sequence (Q15116 25-167 limits assumed): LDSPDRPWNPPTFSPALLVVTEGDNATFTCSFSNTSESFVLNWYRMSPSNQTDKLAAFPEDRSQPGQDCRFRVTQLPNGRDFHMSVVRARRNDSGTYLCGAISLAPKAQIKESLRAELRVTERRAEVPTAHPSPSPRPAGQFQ
T1 sequence (Q15116 25-288): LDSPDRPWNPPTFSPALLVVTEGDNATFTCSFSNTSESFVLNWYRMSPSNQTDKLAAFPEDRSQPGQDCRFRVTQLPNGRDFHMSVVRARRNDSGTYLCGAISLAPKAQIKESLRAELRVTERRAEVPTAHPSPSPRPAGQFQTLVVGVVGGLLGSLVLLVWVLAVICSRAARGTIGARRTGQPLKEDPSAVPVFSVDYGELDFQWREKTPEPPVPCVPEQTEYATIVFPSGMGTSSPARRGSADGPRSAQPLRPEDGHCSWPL

B1: humanized 13F1-hIgG1 (antibody)
heavy: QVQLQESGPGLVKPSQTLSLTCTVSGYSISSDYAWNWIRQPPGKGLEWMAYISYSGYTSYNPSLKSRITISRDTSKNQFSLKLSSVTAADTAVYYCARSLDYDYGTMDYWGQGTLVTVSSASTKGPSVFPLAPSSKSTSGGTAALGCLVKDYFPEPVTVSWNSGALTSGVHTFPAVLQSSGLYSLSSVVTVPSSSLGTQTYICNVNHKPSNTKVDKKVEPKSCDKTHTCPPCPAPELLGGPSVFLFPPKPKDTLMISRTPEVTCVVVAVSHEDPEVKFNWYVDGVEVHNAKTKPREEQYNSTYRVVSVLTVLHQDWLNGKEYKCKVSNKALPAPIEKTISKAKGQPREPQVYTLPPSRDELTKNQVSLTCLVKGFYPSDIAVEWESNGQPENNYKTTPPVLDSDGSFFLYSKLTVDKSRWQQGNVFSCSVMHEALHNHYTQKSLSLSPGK
light: EIVLTQSPATLSLSPGERATLSCRANSSVSSMHWYQQKPGQSPEPWIYAISNLAFGVPARFSGSGSGTDYTLTISSLEPEDFAVYYCQQWSSRPPTFGQGTKLEIKRTVAAPSVFIFPPSDEQLKSGTASVVCLLNNFYPREAKVQWKVDNALQSGNSQESVTEQDSKDSTYSLSSTLTLSKADYEKHKVYACEVTHQGLSSPVTKSFNRGEC
notes: IgG1 constant region with D265A, already in the entry; also called h13F1-IgG1; hu-13F1-hIgG1
Take B1: the values for the EC50 in assay [1] and in [4] were 0.0668 µg/mL and 0.0357 µg/mL, respectively. Further, the values for the IC50 in [2] and in assay [3] were 0.985 µg/mL and 0.0295 µg/mL, respectively.

B2: 4C10 murine anti-PD-1 antibody (antibody, V domains shown)
VH: QVQLKQSGPGLVQPSQNLSVTCTVSGFSLTTYGVHWVRQSPGKGLEWLGVIWSGGSTDYNAAFISRLTISKDNARSQVFFKMNSLQVNDTAMYYCAREKSVYGNYVGAMDYWGQGTSVTVSS
VL: SIVMTQTPKFLLVSAGDRVTITCKASQSVSDDVAWYQQKPGQSPKLLIYYAFNRYTGVPDRFTGSGYGTDFTFTISTVQSEDLAVYFCQQDYRSPWTFGGGTKLEIKR
notes: Purified hybridoma antibody; also called 4C10-mIgG1
Turning to B2, the binding result in the assay with mouse PD-1, with human ICOS, with human CD28 and in the assay with human CTLA4 was “no binding” in each case. For the same molecule, the concentration for half-maximal inhibition (IC50) in assay [5] worked out at 1.46 µg/mL; in assay [7], 1.46 µg/mL; in assay [10], 0.251 µg/mL; in assay [11] it was 0.0833 µg/mL. The half-maximal effective concentration (EC50) in assay [6] came to 0.109 µg/mL; in [9], 0.0132 µg/mL; in [12], 0.0132 µg/mL. The Kd in assay [8] and in [13] was 0.0332 nM throughout. Moreover, the Ka in [13] came out at 3.01e+10 M⁻¹. In assay [13], this molecule yielded a koff of 2.63e-05 s⁻¹. The molecule also returned a kon in [13] of 791000 M⁻¹ s⁻¹.

B3: 6E1 murine anti-PD-1 antibody (antibody, V domains shown)
VH: EVKLVESGGGLVKPGGSLKLSCAASGFTFSSYGMSWVRQTPEKRLEWVATISGGGRDTYYLDSVKGRFTISRDNAKNNLYLQMSSLRSEDTALYYCVRQYYDDWFAYWGQGTLVSNSA
VL: DIVLTQTPATLSVTPGDSVSLSCRASQSLSNNLHWYQQKSHESPRLLIKYASQSISGIPSRFSGSGSGTDFTLSINSVETEDFGMYFCQQSNSWPLTFGAGTKLEMKR
notes: Purified hybridoma antibody; also called 6E1-mIgG1
As to B3, the binding result with mouse PD-1, in the assay with human ICOS, with human CD28 and in the assay with human CTLA4 was “no binding” in each case. The IC50 in assay [5] amounted to 0.961 µg/mL; in assay [7], 0.961 µg/mL; in [10], 0.114 µg/mL; in [11], 0.0268 µg/mL. For the same molecule, the EC50 in assay [6] came to 0.0491 µg/mL; in assay [9] it was 0.0157 µg/mL; in assay [12] it was 0.0157 µg/mL. For the same molecule, the Kd in [8] and in assay [13] was 0.0255 nM each time. Also, in assay [13], the Ka was found to be 3.92e+10 M⁻¹. Besides, the koff in [13] was 2.83e-05 s⁻¹. In assay [13], this molecule had a kon of 1.11e+06 M⁻¹ s⁻¹.

B4: 7D3 murine anti-PD-1 antibody (antibody, V domains shown)
VH: B3 VH with A23G, T58I, L61P, F68L, S115T, N116V
VL: B3 VL with T7S, L29I, N32D, A51V, N92D, M106L
notes: Purified hybridoma antibody; also called 7D3-mIgG1
Turning to B4, the binding result in the assay with mouse PD-1, in the assay with human ICOS, in the assay with human CD28 and with human CTLA4 was “no binding” throughout. Also, the half-maximal inhibitory concentration (IC50) was 0.982 µg/mL in assay [5], 0.982 µg/mL in assay [7], 0.141 µg/mL in assay [10] and 0.038 µg/mL in [11]. The EC50 in assay [6] is 0.0527 µg/mL; in assay [9] it was 0.0244 µg/mL; in assay [12], 0.0244 µg/mL. The Kd in [8] and in assay [13] was 0.0249 nM in each case. In addition, in [13], the Ka stood at 4.02e+10 M⁻¹. The molecule also came in with a koff in [13] of 2.83e-05 s⁻¹. This molecule gave a kon in assay [13] of 1.14e+06 M⁻¹ s⁻¹.
